{"source": "patent US20230383001A1", "about": "(Kyowa Kirin, published 2023)", "molecular_target": "T1, OX40 on OX40-positive helper T-cells in blood of patients (human, UniProt P43489 29-277)", "T1 construct": "whole, on cells; The cells came from trial patients; also called CD134; human OX40", "T1 sequence (looked up)": "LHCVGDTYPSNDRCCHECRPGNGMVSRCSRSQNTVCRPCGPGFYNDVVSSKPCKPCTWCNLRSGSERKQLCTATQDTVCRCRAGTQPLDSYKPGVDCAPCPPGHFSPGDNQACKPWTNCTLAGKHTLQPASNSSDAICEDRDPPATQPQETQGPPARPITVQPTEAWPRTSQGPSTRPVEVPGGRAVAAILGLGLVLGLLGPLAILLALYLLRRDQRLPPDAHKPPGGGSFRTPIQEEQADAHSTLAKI", "experiment": "flow cytometry of patients' blood after dosing: total versus unoccupied OX40-positive helper T cells (receptor occupancy, ex vivo)", "procedure": "Blood samples for flow cytometry are collected from the subjects who voluntarily agree. When the timing overlaps the study drug administration, the sample is taken before the study drug administration. The OX40-positive cells and the CLA-positive memory T cells in the blood of the patients are counted. When OX40-positive cells in the blood are analyzed, OX40-positive cells in helper T cells are analyzed by using helper T cell markers. Therefore, OX40-positive cells in the blood herein means OX40 positive helper T cells in the blood."}
{"binder": "KHK4083 (antibody, human IgG1, kappa, V domains shown, also called anti-OX40 antibody) VH: QITLKESGPTLVKPKQTLTLTCTFSGFSLSTSGMGVGWIRQPPGKALEWLAVIYWDDHQLYSPSLKSRLTITKDTSKNQVVLTMTNMDPVDTATYYCAHRRGAFQHWGQGTLVTVSS VL: not shown", "values": [{"measurement": "binding result", "value": "binds"}]}
